Assay [1] has as its target T1, soluble αVβ6 headpiece, disulfide-linked (αV headpiece residues 1-594 with M400C); β6 headpiece residues 1-474 … (human, UniProt P06756 31-624; P18564 18-491, Interchain disulfide between αV Cys-400 and β6 Cys-270.).
T1 construct: The 3C site, ACID/BASE coiled-coils, Strep-II tag and His tags were cut off with 3C protease; The two chains are linked by the introduced disulfide bond; also called modified integrin αVβ6 headpiece dimer; full headpiece
Put plainly: fluorescence anisotropy, competition with FITC-GRGDLGRL on the αVβ6 headpiece. The procedure: (§1) Ligands bind to the integrin headpiece, which contains the α-subunit β-propeller domain and thigh domain, and the β-subunit βI, hybrid, PSI, and EGF1 domain. […] (SEQ ID NO: 68), peptide affinity for the αVβ₆ and αVβ₃ headpiece was measured with fluorescence anisotropy.
(§2) Fluorescence anisotropy. […] Binding affinities were calculated as described in Ref. 23.
Background: Polarisation of emitted light reports the rotation of a fluorescent probe.

Assay [2] deals with T2, soluble αVβ6 headpiece, disulfide-linked (αV headpiece residues 1-594 with M400C); β6 headpiece residues 1-474 … (UniProt P06756 31-624; P18564 18-491, Interchain disulfide between αV Cys-400 and β6 Cys-270.).
T2 alpha: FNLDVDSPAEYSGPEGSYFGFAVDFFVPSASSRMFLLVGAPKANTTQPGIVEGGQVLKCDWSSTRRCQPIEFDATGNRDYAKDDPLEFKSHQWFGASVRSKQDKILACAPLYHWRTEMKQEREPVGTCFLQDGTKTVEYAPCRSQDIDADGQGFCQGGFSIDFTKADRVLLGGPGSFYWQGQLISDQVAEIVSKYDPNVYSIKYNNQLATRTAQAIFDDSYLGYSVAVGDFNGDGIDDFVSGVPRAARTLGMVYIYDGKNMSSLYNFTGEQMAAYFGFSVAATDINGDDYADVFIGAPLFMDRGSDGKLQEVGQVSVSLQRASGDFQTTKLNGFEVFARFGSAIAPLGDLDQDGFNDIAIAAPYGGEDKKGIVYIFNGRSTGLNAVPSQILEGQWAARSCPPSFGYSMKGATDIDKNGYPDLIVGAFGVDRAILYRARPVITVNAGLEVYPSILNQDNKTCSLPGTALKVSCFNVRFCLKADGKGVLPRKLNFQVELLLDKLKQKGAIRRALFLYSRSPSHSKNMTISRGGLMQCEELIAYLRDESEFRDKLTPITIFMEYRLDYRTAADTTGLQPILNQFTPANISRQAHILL
T2 beta: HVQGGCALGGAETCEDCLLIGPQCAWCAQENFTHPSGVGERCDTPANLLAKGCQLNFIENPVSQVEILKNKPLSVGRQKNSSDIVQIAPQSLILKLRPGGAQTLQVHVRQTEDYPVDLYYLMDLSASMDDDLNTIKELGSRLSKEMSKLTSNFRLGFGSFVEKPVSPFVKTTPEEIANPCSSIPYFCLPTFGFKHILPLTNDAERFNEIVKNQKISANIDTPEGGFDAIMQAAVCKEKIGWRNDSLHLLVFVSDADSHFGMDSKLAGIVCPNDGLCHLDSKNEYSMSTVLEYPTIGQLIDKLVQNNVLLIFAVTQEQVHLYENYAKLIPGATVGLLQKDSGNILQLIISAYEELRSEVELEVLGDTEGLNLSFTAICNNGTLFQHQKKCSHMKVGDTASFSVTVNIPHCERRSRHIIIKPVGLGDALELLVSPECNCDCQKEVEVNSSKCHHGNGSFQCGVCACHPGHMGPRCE
Kind of assay: fluorescence anisotropy competition.

The target of assay [3] is T1, soluble αVβ6 headpiece, …. Kind of assay: crystal structure, peptide soaked into αVβ6 headpiece crystals. The procedure: αVβ₆ headpiece crystallization, data collection and structure determination. αVβ₆ crystals in hanging drops were formed with 3 mg/ml αVβ₆ headpiece in 20 mM Tris-HCl pH 8.0, 150 mM NaCl, 1 mM CaCl₂ and 1 mM MgCl₂ buffer (1 μl) and 1 μl reservoir solution of 20% PEG 4000, 0.1 M sodium cacodylate pH 6.0, 0.2 M ammonium sulfate. Identical vol:vol mixture of the protein and crystallization buffers yields a pH of 6.5. […] Immediately prior to flash freezing in liquid N₂, crystals were dipped in reservoir solution containing 25% glycerol with or without peptide, MgCl₂, and CaCl₂ each at 0.25 mM.

Assay [4] addresses T1, soluble αVβ6 headpiece, …. Put plainly: fluorescence anisotropy, saturation binding, Mn2+/Ca2+. The procedure:
(§3) (SEQ ID NO: 68), was synthesized. […] By competition binding assay, the affinities of different ligands were measured.
as §2

Assay [5] has as its target T1, soluble αVβ6 headpiece, …. Put plainly: fluorescence anisotropy, saturation binding, 1 mM Mg2+/Ca2+. The procedure: as §3, §2
Assay [6] concerns the target T2, soluble αVβ6 headpiece, …. Kind of assay: fluorescence anisotropy; pH 5.0.
Assay [7] deals with T2, soluble αVβ6 headpiece, …. Kind of assay: fluorescence anisotropy; pH 6.0.
Assay [8] concerns the target T2, soluble αVβ6 headpiece, …. Kind of assay: fluorescence anisotropy; pH 7.0.
Assay [9] concerns the target T2, soluble αVβ6 headpiece, …. Put plainly: fluorescence anisotropy; pH 8.0.
In assay [10] the target is T2, soluble αVβ6 headpiece, …. Put plainly: fluorescence anisotropy; pH 9.0.
For assay [11], the target named is T3, soluble αVβ3 headpiece, disulfide-linked (αV headpiece residues 1-594 with M400C); β3 headpiece residues 1-472 … (UniProt P06756 31-624; P05106 27-498, Interchain disulfide between αV Cys-400 and β3 Cys-267.).
T3 alpha: T2 alpha
T3 beta: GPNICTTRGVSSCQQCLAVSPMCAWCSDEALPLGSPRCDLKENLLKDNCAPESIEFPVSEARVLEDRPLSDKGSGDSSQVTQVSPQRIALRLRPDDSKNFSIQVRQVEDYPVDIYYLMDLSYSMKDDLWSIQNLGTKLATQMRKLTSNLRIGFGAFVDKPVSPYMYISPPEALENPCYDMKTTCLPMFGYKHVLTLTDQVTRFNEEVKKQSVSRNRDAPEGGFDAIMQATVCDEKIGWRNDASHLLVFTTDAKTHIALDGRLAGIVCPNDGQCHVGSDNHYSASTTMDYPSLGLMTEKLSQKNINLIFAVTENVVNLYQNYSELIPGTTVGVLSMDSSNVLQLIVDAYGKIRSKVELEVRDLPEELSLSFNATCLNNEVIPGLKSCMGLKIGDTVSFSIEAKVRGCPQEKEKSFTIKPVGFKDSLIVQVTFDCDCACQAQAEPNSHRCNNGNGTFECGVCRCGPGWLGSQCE
Put plainly: fluorescence anisotropy competition.

Assay [12] deals with T4, soluble αVβ3 headpiece, disulfide-linked (αV headpiece residues 1-594 with M400C); β3 headpiece residues 1-472 … (human, UniProt P06756 31-624; P05106 27-498, Interchain disulfide between αV Cys-400 and β3 Cys-267.).
T4 construct: tags and coiled-coils cut off with 3C protease
Put plainly: fluorescence anisotropy, competition with FITC-GRGDLGRL on the αVβ3 headpiece. The procedure:
as §1, §2

Ends that are not written are not given here. * marks the point of attachment. FITC = O=C1OC2(c3ccc(O)cc3Oc3cc(O)ccc32)c2ccc(NC(=S)*)cc21

B1: nonapeptide containing RGD from pro-TGF-β1 (peptide)
peptide: RRGDLATIH
notes: also called pro-TGF-β1 peptide
What is called Kd is the free concentration of one partner at which half of the binding sites on the other are occupied at equilibrium, for simple one-to-one binding. As for B1, in assay [1], the Kd came out at 10.3 nM.

B2: HGRGDLGR (peptide)
chain: HGRGDLGR
For B2, in assay [2], the Kd worked out at 296 nM.

B3: HGRGDL (peptide)
chain: HGRGDL
In turn, B3 showed a dissociation constant Kd in assay [2] of 966 nM.

B4: HGRGDLGRL (peptide)
chain: HGRGDLGRL
In assay [2], B4 gave a Kd of 28.4 nM.

B5: pro-TGF-β3 undecapeptide Ac-HGRGDLGRLKK-NH2 (peptide)
peptide: Ac-HGRGDLGRLKK-NH2
notes: also called Pro-TGF-β3 peptide; TGF-β3 peptide
B5: in [3], the binding result is recorded as “binds”. Further, in assay [2], the equilibrium dissociation constant (Kd) was 7.3 nM.

B6: HGRGDLGRLK (peptide)
chain: HGRGDLGRLK
In the case of B6, in assay [2], binding was characterised by a dissociation constant (Kd) of 20.3 nM.

B7: HGRGDLG (peptide)
chain: HGRGDLG
Molecule B7 registered a dissociation constant (Kd) in [2] of 691 nM.

B8: FITC-GRGDLGRL (FITC-pro-TGF-β3 peptide, fluorescence probe) (peptide)
peptide: {FITC}-GRGDLGRL
notes: also called the probe
Consider B8, for which the Kd in [4] worked out at 10 nM; in assay [5], 100 nM; in assay [6], 3810 nM; in [7], 2000 nM; in assay [8], 212 nM; in [9], 84.6 nM. The molecule further yielded an equilibrium dissociation constant (Kd) in assay [10] of 27.4 nM.

B9: nonapeptide containing RGD from pro-TGF-β3 (GRGDLGRLK) (peptide)
peptide: GRGDLGRLK
notes: also called pro-TGF-β3 peptide; TGF-β3 nonapeptide
As for B9, the equilibrium dissociation constant (Kd) worked out at 2300 nM in [11] and 8.5 nM in [1]. In addition, the “fold lower affinity than for αVβ6” value in assay [12] was found to be 1000 fold.

B10: HGRGD (peptide)
chain: HGRGD
Turning to B10, the Kd in assay [2] stood at 8900 nM.

B11: homologous peptide from pro-TGF-β2, which has SGDQ in place of RGDL of pro-TGF-β1 (peptide)
peptide: TSGDQKTIK
notes: also called pro-TGF-β2 peptide
On to B11, for which the Kd in assay [11] was determined as 4800 nM. In assay [1], the Kd stood at 8500 nM; the “fold lower affinity than the pro-TGF-β1 and pro-TGF-β3 nonapeptides” value was 1000 fold.
